Assay results reported in paper PMC6668441, “Comparative Study of Subcutaneous and Orthotopic Mouse Models of Prostate Cancer: Vascular Perfusion, Vasculature Density, Hypoxic Burden and BB2r-Targeting Efficacy” (Scientific Reports, 2019).

Key:
[1] = system: orthotopic PC-3 xenografts; test: Biodistribution, BB2r-targeted uptake, orthotopic PC-3 xenograft model
Description: (§1) For the subcutaneous model, 5-week old female SCID mice were inoculated in the flanks with 5 × 10^6 PC-3 cells (American Type Culture Collection (ATCC), VA) in Matrigel®. The tumor size was monitored by caliper. For the generation of the orthotopic model, the PC-3-Luc cells were selected by 0.5 µg/mL puromycin twice before inoculation. The male 6-weeks SCID mice were anesthetized, the muscles of the abdomen area were cut after retracting the skin, and the prostate gland exposed. 50 μL of PC-3-Luc cell suspension at 0.5 × 10^6/mL in Matrigel® was injected into a dorsal prostatic lobe. The wound was closed in two layers and the skin was clipped. Animals were given analgesic drugs for 3 days and the tumors were monitored by an IVIS optical imaging system.
(§2) The mice were injected, monitored and dissected in the lab with the temperature of 23 °C and 17% relative humidity. All animals were awake until sacrifice. The body weight, tumor volume and tumor luminescence of the mice were recorded every three days. At four-to-seven weeks post-xenograft implantation, the mice were divided into three groups by tumor volume: <300, 300–700 and >700 mm^3 in both animal models. […] Each mouse (average weight: 20 g for female mice and 25 g for male mice) was treated with pimonidazole solution (80 mg/kg in PBS) via intraperitoneal injection. […] After an additional 1 h, the mice were injected intravenously with a PBS solution containing 10 µCi (370 kBq) of [^99mTc]NaTcO4 and 15 mg/kg Hoechst 33342. The animals were sacrificed 5 minutes later, and their tissues collected. The excised tissues were weighed, the radioactivity for each tissue was measured by γ-counter and the percentage injected dose per gram (%ID/g) was calculated for each tissue. […]
(§3) Establishment of Stably Transfected PC-3-Luc Cells
(§4) To generate the PC-3-Luc cells, we utilized pre-made lentivirus particles encoding luciferase and GFP (EF1a-Luciferase (firefly)-2A-GFP (Puro), AMSBIO) for transfection. Briefly, normal PC-3 cells were seeded in a 24-well plate using 0.5 mL of medium containing 0.5 × 10^5 cells/mL and incubated overnight. The medium was removed and replaced with 0.5 mL of fresh medium pre-mixed with 2.5 ȝL TransduxTM. To each well was added 2 ȝL of the lentivirus particle solution and swirled to mix. The plate was returned to the incubator and cultured for 3 days. Once the cells grew to confluence, they were harvested and transferred to larger plates (from 6-well plates to 60 mm dishes). 1.5 mL of suspended cells in PBS at a concentration of 5 × 10^6/mL was sorted by the FACS method to give the GFP positive (PC-3-Luc) cells that were returned to culture for in vitro and in vivo studies.
(§5) The normal PC-3 cells and PC-3-Luc were cultured in our laboratory, as per ATCC protocols, in Ham’s F-12K medium containing 10% FBS, 2.5 mM L-glutamine, 15 mM HEPES and 0.5 mM sodium pyruvate. Cells were incubated at 37 °C […]
(§6) All animal experiments were performed in accordance with the NIH animal use guideline and protocol approved by the […]

[2] = as above; conditions: male, NOD SCID, mouse, iv, total radioactivity, orthotopic model, 10 µCi i.v., 1 h 5 min p.i., mean ± SD; for dose excreted at 65 min: urine and faeces, excretion (urine and fecal material)
Description: as §1, §2, §3, §4, §5, §6

In the case of CSCC[C@H](NC(=O)[C@H](CC(C)C)NC(=O)[C@H](Cc1c[nH]cn1)NC(=O)CNC(=O)[C@@H](NC(=O)[C@H](C)NC(=O)[C@H](Cc1c[nH]c2ccccc12)NC(=O)[C@H](CCC(N)=O)NC(=O)CCOCCOCCOCCOCCNC(=O)[C@@H](CO)NC(=O)[C@@H](CO)NC(=O)[C@@H](CO)NC(=O)[C@@H](CO)NC(=O)[C@@H](CO)NC(=O)CN1CCN(CC(=O)O)CCN(CC(=O)O)CCN(CC(=O)O)CC1)C(C)C)C(N)=O [[^177Lu]Lu-DOTA-SP714, metal not drawn], the “blood retention values between the two models” value ([1]; orthotopic versus subcutaneous) is reported as “not statistically different”, the “average tumor uptake, orthotopic versus subcutaneous model” value ([1]; tumor volume 300–700 mm^3, p = 0.011) is reported as 1.6 fold and the “average tumor uptake, orthotopic versus subcutaneous model” value ([1]; tumor volume <300 mm^3, p = 0.0055) is reported as 1.9 fold. For the same molecule, the “average tumor uptake, orthotopic versus subcutaneous model” value ([1]; tumor volume >700 mm^3, p = 0.34) was 1.2 fold, the tissue uptake at 65 min ([2]; blood, 10 uCi, blood uptake, tumor volume 300-700 mm^3) was 0.33 ± 0.14 %ID/g and the tissue uptake at 65 min ([2]; blood, 10 uCi, blood uptake, tumor volume <300 mm^3) was 0.27 ± 0.19 %ID/g. It also gave a tissue uptake at 65 min ([2]; blood, 10 uCi, blood uptake, tumor volume >700 mm^3) of 0.57 ± 0.12 %ID/g, a tissue uptake at 65 min ([2]; bone, 10 uCi (370 kBq), bone uptake, tumor volume 300-700 mm^3) of 0.46 ± 0.22 %ID/g and a tissue uptake at 65 min ([2]; bone, 10 uCi (370 kBq), bone uptake, tumor volume <300 mm^3) of 0.29 ± 0.22 %ID/g. It also gave a tissue uptake at 65 min ([2]; bone, 10 uCi (370 kBq), bone uptake, tumor volume >700 mm^3) of 0.53 ± 0.24 %ID/g, a tissue uptake at 65 min ([2]; brain, 10 uCi (370 kBq), brain uptake, tumor volume 300-700 mm^3) of 0.06 ± 0.03 %ID/g and a tissue uptake at 65 min ([2]; brain, 10 uCi (370 kBq), brain uptake, tumor volume <300 mm^3) of 0.03 ± 0.01 %ID/g. It also gave a tissue uptake at 65 min ([2]; brain, 10 uCi (370 kBq), brain uptake, tumor volume >700 mm^3) of 0.06 ± 0.02 %ID/g, a tissue uptake at 65 min ([2]; heart, 10 uCi (370 kBq), heart uptake, tumor volume 300-700 mm^3) of 0.39 ± 0.49 %ID/g and a tissue uptake at 65 min ([2]; heart, 10 uCi (370 kBq), heart uptake, tumor volume <300 mm^3) of 0.13 ± 0.09 %ID/g. The tissue uptake at 65 min ([2]; heart, 10 uCi (370 kBq), heart uptake, tumor volume >700 mm^3) was 0.3 ± 0.17 %ID/g, the tissue uptake at 65 min ([2]; kidney, 10 uCi (370 kBq), kidney uptake, tumor volume 300-700 mm^3) was 4.8 ± 4.92 %ID/g and the tissue uptake at 65 min ([2]; kidney, 10 uCi (370 kBq), kidney uptake, tumor volume <300 mm^3) was 3.4 ± 0.92 %ID/g. For the same molecule, the tissue uptake at 65 min ([2]; kidney, 10 uCi (370 kBq), kidney uptake, tumor volume >700 mm^3) was 5.98 ± 3.08 %ID/g, the tissue uptake at 65 min ([2]; large intestine, 10 uCi (370 kBq), large intestine uptake, tumor volume 300-700 mm^3) was 4.52 ± 1.31 %ID/g and the tissue uptake at 65 min ([2]; large intestine, 10 uCi (370 kBq), large intestine uptake, tumor volume <300 mm^3) was 2.06 ± 1.02 %ID/g. The tissue uptake at 65 min ([2]; large intestine, 10 uCi (370 kBq), large intestine uptake, tumor volume >700 mm^3) was 4.07 ± 1.91 %ID/g, the tissue uptake at 65 min ([2]; liver, 10 uCi (370 kBq), liver uptake, tumor volume 300-700 mm^3) was 0.4 ± 0.18 %ID/g and the tissue uptake at 65 min ([2]; liver, 10 uCi (370 kBq), liver uptake, tumor volume <300 mm^3) was 0.26 ± 0.07 %ID/g. It also gave a tissue uptake at 65 min ([2]; liver, 10 uCi (370 kBq), liver uptake, tumor volume >700 mm^3) of 0.52 ± 0.19 %ID/g, a tissue uptake at 65 min ([2]; lung, 10 uCi (370 kBq), lung uptake, tumor volume 300-700 mm^3) of 0.92 ± 0.41 %ID/g and a tissue uptake at 65 min ([2]; lung, 10 uCi (370 kBq), lung uptake, tumor volume <300 mm^3) of 0.82 ± 0.5 %ID/g. For the same molecule, the tissue uptake at 65 min ([2]; lung, 10 uCi (370 kBq), lung uptake, tumor volume >700 mm^3) was 1.28 ± 0.47 %ID/g, the tissue uptake at 65 min ([2]; muscle, 10 uCi (370 kBq), muscle uptake, tumor volume 300-700 mm^3) was 0.22 ± 0.1 %ID/g and the tissue uptake at 65 min ([2]; muscle, 10 uCi (370 kBq), muscle uptake, tumor volume <300 mm^3) was 0.23 ± 0.12 %ID/g. For the same molecule, the tissue uptake at 65 min ([2]; muscle, 10 uCi (370 kBq), muscle uptake, tumor volume >700 mm^3) was 0.48 ± 0.34 %ID/g, the tissue uptake at 65 min ([2]; pancreas, 10 uCi (370 kBq), pancreas uptake, tumor volume 300-700 mm^3) was 40.1 ± 11.5 %ID/g and the tissue uptake at 65 min ([2]; pancreas, 10 uCi (370 kBq), pancreas uptake, tumor volume <300 mm^3) was 30 ± 12.5 %ID/g. The tissue uptake at 65 min ([2]; pancreas, 10 uCi (370 kBq), pancreas uptake, tumor volume >700 mm^3) was 37.2 ± 7.29 %ID/g, the tissue uptake at 65 min ([2]; small intestine, 10 uCi (370 kBq), small intestine uptake, tumor volume 300-700 mm^3) was 3.74 ± 1.15 %ID/g and the tissue uptake at 65 min ([2]; small intestine, 10 uCi (370 kBq), small intestine uptake, tumor volume <300 mm^3) was 2.97 ± 0.66 %ID/g. It also gave a tissue uptake at 65 min ([2]; small intestine, 10 uCi (370 kBq), small intestine uptake, tumor volume >700 mm^3) of 3.8 ± 1.46 %ID/g, a tissue uptake at 65 min ([2]; spleen, 10 uCi (370 kBq), spleen uptake, tumor volume 300-700 mm^3) of 2.02 ± 3.14 %ID/g and a tissue uptake at 65 min ([2]; spleen, 10 uCi (370 kBq), spleen uptake, tumor volume <300 mm^3) of 1.77 ± 1.19 %ID/g. It also gave a tissue uptake at 65 min ([2]; spleen, 10 uCi (370 kBq), spleen uptake, tumor volume >700 mm^3) of 2.91 ± 4.89 %ID/g, a tissue uptake at 65 min ([2]; stomach, 10 uCi (370 kBq), stomach uptake, tumor volume 300-700 mm^3) of 1.59 ± 0.9 %ID/g and a tissue uptake at 65 min ([2]; stomach, 10 uCi (370 kBq), stomach uptake, tumor volume <300 mm^3) of 1.07 ± 0.53 %ID/g. It also gave a tissue uptake at 65 min ([2]; stomach, 10 uCi (370 kBq), stomach uptake, tumor volume >700 mm^3) of 1.46 ± 0.62 %ID/g, a tissue uptake at 65 min ([2]; tumor, 10 uCi, tumor uptake, tumor volume 300-700 mm^3) of 8.55 ± 2.65 %ID/g and a tissue uptake at 65 min ([2]; tumor, 10 uCi, tumor uptake, tumor volume <300 mm^3) of 8.07 ± 3.23 %ID/g. It also gave a tissue uptake at 65 min ([2]; tumor, 10 uCi, tumor uptake, tumor volume >700 mm^3) of 11.1 ± 2.88 %ID/g, a dose excreted at 65 min ([2]; 10 uCi, tumor volume 300-700 mm^3) of 67.2 ± 8.53% and a dose excreted at 65 min ([2]; 10 uCi, tumor volume <300 mm^3) of 60.8 ± 29.3%. The dose excreted at 65 min ([2]; 10 uCi, tumor volume >700 mm^3) was 60.2 ± 10.8%.
